Laboratory results from the supplement of paper PMC7125110.
± gives the standard error. For some of these results: Variants at the floor of the assay were thinned out.

B1: glmS ribozyme (parent)
chain: AUAAAAGCGCCAGAACUACAGAAAUGUAGUUGACGAGGAGGAGGUUUAUCGAAUUUUCGGCGGAUGCCUCCAAA

Experiments:
Conditions in all cases: with glucosamine-6-phosphate
glucosamine-6-phosphate [1] = variants of: B1; test: kcat; higher = faster cleavage; RNA array
In short: (§1)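 Barcoded glmS ribozyme variants on sequenced MiSeq chips were transcribed in situ by E. coli RNA polymerase and tracked through a hybridised Cy3 probe at 37 °C. Glucosamine-6-phosphate (40 μM to 10 mM) in HEPES/KCl/Mg(OAc)2 buffer was flowed in, and tiles were imaged over ~14 h. Signals were normalised to baseline and to non-cleaving reference variants; per-tile medians were fit to one- or two-exponential decays to give kobs. kcat and KM came from weighted Michaelis–Menten fits across concentrations.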

glucosamine-6-phosphate [2] = variants of: B1; test: KM; higher = weaker cofactor use; RNA array
In short: as §1

glucosamine-6-phosphate [3] = variants of: B1; test: self-cleavage kobs at 40 uM GlcN6P; higher = faster cleavage; RNA array
In short: as §1

glucosamine-6-phosphate [4] = variants of: B1; test: self-cleavage kobs at 160 uM GlcN6P; higher = faster cleavage; RNA array
In short: as §1

glucosamine-6-phosphate [5] = variants of: B1; test: self-cleavage kobs at 640 uM GlcN6P; higher = faster cleavage; RNA array
In short: as §1

glucosamine-6-phosphate [6] = variants of: B1; test: self-cleavage kobs at 2500 uM GlcN6P; higher = faster cleavage; RNA array
In short: as §1

glucosamine-6-phosphate [7] = variants of: B1; test: self-cleavage kobs at 10000 uM GlcN6P; higher = faster cleavage; RNA array
In short: as §1

Variant	kcat (glucosamine-6-phosphate [1]) [s⁻¹]	KM (glucosamine-6-phosphate [2]) [µM]	self-cleavage kobs at 40 uM GlcN6P (glucosamine-6-phosphate [3]) [s⁻¹]	self-cleavage kobs at 160 uM GlcN6P (glucosamine-6-phosphate [4]) [s⁻¹]	self-cleavage kobs at 640 uM GlcN6P (glucosamine-6-phosphate [5]) [s⁻¹]	self-cleavage kobs at 2500 uM GlcN6P (glucosamine-6-phosphate [6]) [s⁻¹]	self-cleavage kobs at 10000 uM GlcN6P (glucosamine-6-phosphate [7]) [s⁻¹]
U56G C70G	9.25e-05 ± 3.2e-06	61.4 ± 13	4.14e-05 ± 9.7e-06	6.12e-05 ± 1e-05	8.21e-05 ± 8.7e-06	9.14e-05 ± 1.1e-05	9.54e-05 ± 9.8e-06
G40U U47G	0.000765 ± 0.00012	908 ± 250	4.04e-05 ± 1e-05	0.000115 ± 2.6e-05	0.000262 ± 5.2e-05	0.000699 ± 0.00013	0.000681 ± 0.00011
A15G U31G A39U	0.00331 ± 0.0014	–	3.3e-05 ± 1.1e-05	0.000104 ± 1.8e-05	0.000575 ± 0.00013	0.000869 ± 0.00014	0.00265 ± 0.00042
G35C C50G	0.000276 ± 6.8e-05	–	3.26e-05 ± 1.4e-05	7.69e-05 ± 3.7e-05	4.8e-05 ± 1.6e-05	0.000107 ± 1.2e-05	0.000205 ± 1.5e-05
C11U C16G	0.000546 ± 4.2e-05	2850 ± 410	–	–	0.000104 ± 1.9e-05	0.000258 ± 4.8e-05	0.000423 ± 5.7e-05
U45G U46G	0.00603 ± 0.0024	–	7.27e-05 ± 1.4e-05	0.000206 ± 5.5e-05	0.000961 ± 0.00019	0.00158 ± 0.00036	0.00523 ± 0.00084
C34G C67A	1.49e-05 ± 6.7e-06	–	–	< 1e-05	–	–	–
A15G G62C U69G	1.74e-05 ± 5.1e-06	–	–	–	–	–	–
C58A G66A	0.000322 ± 5.8e-05	4640 ± 1500	–	–	4.87e-05 ± 1e-05	9.9e-05 ± 1.6e-05	0.000228 ± 2.8e-05
A14G G59A	0.000294 ± 1.8e-05	2010 ± 250	–	–	6.96e-05 ± 1.2e-05	0.000183 ± 3.7e-05	0.000239 ± 3e-05
A12C G66C C70A	8.64e-05 ± 2.7e-05	–	–	0.000157 ± 5.7e-05	3.9e-05 ± 1.8e-05	0.00011 ± 3.2e-05	8.13e-05 ± 1.6e-05
C10U A39U	1.59e-05 ± 5e-07	6310 ± 460	< 1e-05	< 1e-05	< 1e-05	–	–
A33C U56A	0.000161 ± 5.6e-05	–	–	–	–	–	8.05e-05 ± 1.2e-05
A42C C70U	1.24e-05 ± 3.3e-06	–	–	–	–	–	–
G32A U65G	0.000643 ± 0.00019	7620 ± 3800	–	–	7.49e-05 ± 2.1e-05	0.000139 ± 2.7e-05	0.000374 ± 5e-05
A14U G38C	< 1e-05	–	< 1e-05	–	< 1e-05	< 1e-05	< 1e-05
